Experiments:
[1] = biological target: T1, mouse transferrin receptor (mTfR) fused to EGFP, on CHO cells (mouse, UniProt Q62351 1-763); assay: apparent Kd, flow cytometry, CHO cells
T1 construct: whole, on cells; also called mouse TfR; CHO-mTfR-EGFP; not shown: EGFP
Procedure: (§1) All experiments were performed in 96 well plates using 2×10⁵ cells/well, at 4° C. with shaking. CHO cell lines stably expressing the hTfR or the mTfR fused to EGFP or CHO WT cells were saturated with PBS/BSA 2% solution during 30 min to avoid non-specific binding, followed by incubation with purified VHHs at concentrations ranging from 50 μM to 5 μM for 1 hr. After one wash in PBS/BSA 2%, cells were incubated for 1 hr with an anti-6His tag antibody (mouse), washed twice with PBS/BSA 2%, and incubated for 45 min with an Alexa647-conjugated anti-mouse secondary antibody. After two last washes in PBS/BSA 2%, cells were fixed by incubation for 15 min with PBS/PFA 2%, washed once with PBS and finally resuspended in PBS and stored at 4° C. Fluorescence levels were assessed using an Attune NxT Flow Cytometer (Thermo Fisher Scientific). […] No labeling of the CHO WT control cells was detected with all the tested VHHs (not shown). The VHH K_{d app} were calculated using GraphPad Prism software (FIG. 11-B; 12-B).

[2] = biological target: T2, human transferrin receptor (hTfR) fused to EGFP, on CHO cells (human, UniProt P02786 1-760); assay: cell-based or functional assay
[3] = biological target: T2, human transferrin receptor (hTfR) fused …; assay: flow cytometry on CHO-hTfR-EGFP cells, 1 hr at 4 C, anti-6His + Alexa647 anti-mouse; ratio to background fluorescence
Procedure: FIGS. 15A-15H: In vitro gene silencing activity of VHH-siGFPst1 bioconjugates. […] CHO-hTfR-EGFP cells were incubated 1 hr at 4° C. with various concentrations of the indicated compounds. Detection of VHHs was performed using a primary mouse anti-6His (1/1000) and an Alexa647-conjugated anti-mouse secondary antibody (1/400). Measurements of cell-surface signal associated to VHH were performed using flow cytometry. The results are expressed as the ratio of Alexa647-associated fluorescence intensity of test compounds to that of background fluorescence. […] The total fluorescence associated to the EGFP protein was then quantified using flow cytometry and rationalized to that of untreated (control) cells (set at 100%) *** p≤0.001. […] The total fluorescence associated with the EGFP protein was then quantified using flow cytometry and rationalized to that of untreated (control) cells (set at 100%). […] CHO-hTfR-EGFP cells were incubated with the indicated compounds at 1 μM during 120 hrs at 37° C. Data were processed and analyzed as described in (B). *** p≤0.001 vs. untreated cells. […] The total fluorescence associated with the EGFP protein was then quantified using flow cytometry and rationalized to that of untreated (control) cells (set at 100%).

[4] = biological target: T2, human transferrin receptor (hTfR) fused …; assay: flow cytometry on CHO-hTfR-EGFP cells, 1 hr at 4 C, anti-6His + Alexa647 anti-mouse; nonlinear fit
Procedure: CHO-hTfR-EGFP cells were incubated 1 hr at 4° C. with various concentrations of the indicated compounds. Detection of VHHs was performed using a primary mouse anti-6His (1/1000) and an Alexa647-conjugated anti-mouse secondary antibody (1/400). Measurements of cell-surface signal associated with VHH were performed using flow cytometry. The results are expressed as the ratio of Alexa647-associated fluorescence intensity of test compounds to that of background fluorescence.

[5] = biological target: T1, mouse transferrin receptor (mTfR) fused …; assay: flow cytometry on CHO-mTfR-EGFP cells, 1 hr at 4 C, anti-6His + Alexa647 anti-mouse; apparent Kd, mean ± SEM of 3 experiments
Procedure: (§2) (A) CHO-hTfR-EGFP and CHO-mTfR-EGFP cells were incubated 1 hr at 4° C. with various concentrations of VHHs, detected with a mouse anti-6His (1/1000) and an Alexa647-conjugated anti-mouse secondary antibody (1/400). Measurements were performed using flow cytometry.
as §1

[6] = biological target: T2, human transferrin receptor (hTfR) fused …; assay: apparent Kd, flow cytometry, CHO cells
Procedure: as §1

[7] = biological target: T2, human transferrin receptor (hTfR) fused …; assay: flow cytometry on CHO-hTfR-EGFP cells, 1 hr at 4 C, anti-6His + Alexa647 anti-mouse; apparent Kd, mean ± SEM of 3 experiments
Procedure: as §2, §1

[8] = biological target: T3, human TfR ectodomain fused to a mouse IgG1 Fc fragment (human, UniProt P02786 89-760); assay: SPR, at equilibrium
T3 construct: extracellular domain; ectodomain fused to the N-terminal end of the Fc, made in-house; not shown: mouse IgG1 Fc fragment
How it was run: (§3)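 TfR–mouse Fc fusions, produced in-house, captured on HC 1500M or CM5 chips either directly or via immobilized anti-mouse IgG. VHHs injected in single-cycle or multiple-cycle kinetic mode on Biacore T200.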

[9] = biological target: T3, human TfR ectodomain fused to a mouse …; assay: SPR, kinetic
How it was run: as §3

[10] = biological target: T2, human transferrin receptor (hTfR) fused …; assay: flow cytometry on CHO-hTfR-EGFP cells, 1 hr at 4 C, anti-6His + Alexa647 anti-mouse; apparent Kd, mean ± SEM of 3 experiments; remark: listed apart in the source
Procedure: (A) CHO-hTfR-EGFP and CHO-mTfR-EGFP cells were incubated 1 hr at 4° C. with various concentrations of VHHs, detected with a mouse anti-6His (1/1000) and an Alexa647-conjugated anti-mouse secondary antibody (1/400). Measurements were performed using flow cytometry. The ratio of fluorescence intensity for each point was normalized with the corresponding EGFP signal (receptor expression) and gave rise to the arbitrary unit. Data are presented as mean±SEM of 3 independent experiments. (B) Characteristics of VHHs: Molecular Weight (Da); Theoretical pI; Apparent Kd on human TfR (nM); Apparent Kd on mouse TfR (nM). Data are presented as mean±SEM of 3 independent experiments. NB: no binding, LB: low binding.
All experiments were performed in 96 well plates using 2×10⁵ cells/well, at 4° C. with shaking. CHO cell lines stably expressing the hTfR or the mTfR fused to EGFP or CHO WT cells were saturated with PBS/BSA 2% solution during 30 min to avoid non-specific binding, followed by incubation with purified VHHs at concentrations ranging from 50 μM to 5 μM for 1 hr. After one wash in PBS/BSA 2%, cells were incubated for 1 hr with an anti-6His tag antibody (mouse), washed twice with PBS/BSA 2%, and incubated for 45 min with an Alexa647-conjugated anti-mouse secondary antibody. […] Fluorescence levels were assessed using an Attune NxT Flow Cytometer (Thermo Fisher Scientific).

T1 sequence (Q62351 whole entry, the tested form may be a part): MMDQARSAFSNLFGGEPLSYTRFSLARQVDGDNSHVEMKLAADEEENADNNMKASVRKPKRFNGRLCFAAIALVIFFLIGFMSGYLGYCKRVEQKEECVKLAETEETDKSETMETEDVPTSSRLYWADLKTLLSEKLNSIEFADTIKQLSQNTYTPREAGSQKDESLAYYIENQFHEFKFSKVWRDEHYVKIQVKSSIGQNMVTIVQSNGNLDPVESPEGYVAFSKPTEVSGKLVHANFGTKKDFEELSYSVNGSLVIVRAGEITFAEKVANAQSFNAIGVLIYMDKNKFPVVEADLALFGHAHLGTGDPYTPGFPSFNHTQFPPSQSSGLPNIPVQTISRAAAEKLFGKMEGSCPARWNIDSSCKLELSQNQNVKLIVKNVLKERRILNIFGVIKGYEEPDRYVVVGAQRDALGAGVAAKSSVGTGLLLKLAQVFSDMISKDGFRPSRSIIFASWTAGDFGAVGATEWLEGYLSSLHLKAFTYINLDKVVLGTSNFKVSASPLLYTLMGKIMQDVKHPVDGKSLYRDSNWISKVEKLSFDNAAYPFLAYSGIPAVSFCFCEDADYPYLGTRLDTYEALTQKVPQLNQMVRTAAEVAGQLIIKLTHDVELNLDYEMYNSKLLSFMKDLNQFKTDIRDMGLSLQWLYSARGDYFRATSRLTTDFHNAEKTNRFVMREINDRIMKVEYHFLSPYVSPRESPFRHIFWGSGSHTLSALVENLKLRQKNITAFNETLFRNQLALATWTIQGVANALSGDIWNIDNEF
T2 sequence (P02786 whole entry, the tested form may be a part): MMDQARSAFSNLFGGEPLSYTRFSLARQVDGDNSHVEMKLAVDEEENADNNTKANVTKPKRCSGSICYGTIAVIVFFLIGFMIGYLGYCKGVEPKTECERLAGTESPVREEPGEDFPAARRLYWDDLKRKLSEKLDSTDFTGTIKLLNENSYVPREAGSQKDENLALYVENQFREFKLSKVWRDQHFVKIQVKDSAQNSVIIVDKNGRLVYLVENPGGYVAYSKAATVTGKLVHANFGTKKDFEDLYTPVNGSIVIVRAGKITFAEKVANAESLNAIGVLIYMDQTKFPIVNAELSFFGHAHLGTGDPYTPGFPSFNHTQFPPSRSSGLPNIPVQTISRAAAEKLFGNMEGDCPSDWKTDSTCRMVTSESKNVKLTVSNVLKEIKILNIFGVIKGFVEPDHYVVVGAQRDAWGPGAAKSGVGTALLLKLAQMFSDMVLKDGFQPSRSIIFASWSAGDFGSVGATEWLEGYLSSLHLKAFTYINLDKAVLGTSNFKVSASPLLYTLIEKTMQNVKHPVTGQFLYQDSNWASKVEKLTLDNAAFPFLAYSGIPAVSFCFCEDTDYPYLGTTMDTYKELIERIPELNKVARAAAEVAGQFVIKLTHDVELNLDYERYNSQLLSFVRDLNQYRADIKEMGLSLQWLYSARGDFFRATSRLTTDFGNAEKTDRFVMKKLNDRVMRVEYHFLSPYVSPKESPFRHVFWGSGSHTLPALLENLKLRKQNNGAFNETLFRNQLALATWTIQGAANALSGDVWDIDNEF
T3 sequence (P02786 89-760): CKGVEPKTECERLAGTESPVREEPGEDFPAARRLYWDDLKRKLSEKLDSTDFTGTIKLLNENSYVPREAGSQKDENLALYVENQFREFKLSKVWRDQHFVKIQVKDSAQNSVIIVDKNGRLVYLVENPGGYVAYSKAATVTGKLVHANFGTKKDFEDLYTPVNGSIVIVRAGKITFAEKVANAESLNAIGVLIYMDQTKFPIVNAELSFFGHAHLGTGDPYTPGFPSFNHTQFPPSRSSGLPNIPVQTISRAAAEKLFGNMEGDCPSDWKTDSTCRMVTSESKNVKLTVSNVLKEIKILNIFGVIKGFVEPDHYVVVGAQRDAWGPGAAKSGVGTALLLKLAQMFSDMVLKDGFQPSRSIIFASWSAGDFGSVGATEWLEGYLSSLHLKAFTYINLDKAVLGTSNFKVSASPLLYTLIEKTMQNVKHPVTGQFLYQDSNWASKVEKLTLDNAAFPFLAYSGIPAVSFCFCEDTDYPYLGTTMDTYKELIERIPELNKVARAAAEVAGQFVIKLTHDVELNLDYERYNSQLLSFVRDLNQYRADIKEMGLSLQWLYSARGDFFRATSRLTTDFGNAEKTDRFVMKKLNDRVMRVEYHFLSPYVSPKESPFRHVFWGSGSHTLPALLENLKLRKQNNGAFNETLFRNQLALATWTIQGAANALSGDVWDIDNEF

B1: 13C3-LC-VHH A (antibody)
light: DVVMTQTPLSLPVSLGDQASISCRSGQSLVHSNGNTYLHWYLQKPGQSPKLLIYTVSNRFSGVPDRFSGSGSGSDFTLKISRVEAEDLGVYFCSQNTFVPWTFGGGTKLEIKRADAAPTVSIFPPSSEQLTSGGASVVCFLNNFYPKDINVKWKIDGSERQNGVLNSWTDQDSKDSTYSMSSTLTLTKDEYERHNSYTCEATHKTSTSPIVKSFNRNECSGSGGGGGMAEVQLVESGGGVVQPGGSLKLSCVASGTDFSINFIRWYRQAPGKQREFVAGFTATGNTNYADSMKGRFTISRDNTKNAVYLQIDSLKPEDTAVYYCYMLDKWGQGTQVTVSSAAA
heavy: QVQLQQSGPELVRPGVSVKISCKGSGYTFTDYAMHWVKQSHAKSLEWIGVISTKYGKTNYNQKFKGKATMTVDKSSSTAYMELARLTSEDSAIYYCARGDDGYSWGQGTSVTVSSAKTTPPSVYPLAPGSAAQTNSMVTLGCLVKGYFPEPVTVTWNSGSLSSGVHTFPAVLQSDLYTLSSSVTVPSSTWPSETVTCNVAHPASSTKVDKKIVPRDCGCKPCICTVPEVSSVFIFPPKPKDVLTITLTPKVTCVVVDISKDDPEVQFSWFVDDVEVHTAQTQPREEQFNSTFRSVSELPIMHQDWLNGKEFKCRVNSAAFPAPIEKTISKTKGRPKAPQVYTIPPPKEQMAKDKVSLTCMITDFFPEDITVEWQWNGQPAENYKNTQPIMDTDGSYFVYSKLNVQKSNWEAGNTFTCSVLHEGLHNHHTEKSLSHSPG
Kd [1]: 106 nM

B2: VHH A-siGFPst1 bioconjugate (VHH)
VHH: EVQLVESGGGVVQPGGSLKLSCVASGTDFSINFIRWYRQAPGKQREFVAGFTATGNTNYADSMKGRFTISRDNTKNAVYLQIDSLKPEDTAVYYCYMLDKWGQGTQVTVSS
modifications: siGFPst1 siRNA linked by azide/DBCO click chemistry to the Gln of the C-terminal Q-tag
notes: not shown: C-terminal tag with His tag and Q-tag (Q-tagged VHH)
IC50 of reduction of GFP protein levels, 6-hour pulse and chase to 120 hrs [2]: 1.24 nM | IC50 of reduction of GFP protein levels, free uptake 120 hrs [2]: 2.73 nM | EC50 (read off the curve) [3]: ~3 nM

B3: VHH A-NODAGA bioconjugate (VHH, not shown: small tags and cut ends)
VHH: EVQLVESGGGVVQPGGSLKLSCVASGTDFSINFIRWYRQAPGKQREFVAGFTATGNTNYADSMKGRFTISRDNTKNAVYLQIDSLKPEDTAVYYCYMLDKWGQGTQVTVSS
modifications: NODAGA-BCN clicked to an azido linker on the Gln of the C-terminal Q-tag
Kd [4]: 7.72 nM

B4: VHH A17 (C5^V17) (VHH)
VHH: EVQLVESGGGVVQPGGSLKLSCVASGTDFSINFIRWYRQAPGKQREFVAGFTATGNTNYADSMKGRFTISRDNTKNAVYLQIDSLKPEDTAVYYCYMIDKWGQGTQVTVSS
Kd [5]: 208 nM | Kd [6]: 3 to 4 nM | Kd [7]: 5.3 nM

B5: VHH A19 (C5^V19) (VHH)
VHH: EVQLVESGGGVVQPGGSLKLSCVASGTDFSINFIRWYRQAPGKQREFVAGFTATGNTNYADSMKGRFTISRDNTKNAVYLQIDSLKPEDTAVYYCYMLEKWGQGTQVTVSS
Kd [5]: 210 nM | Kd [7]: 9.2 nM | Kd [8]: 7.13 nM | Kd [9]: 22.3 nM | koff [9]: 0.0097 s⁻¹ | kon [9]: 426000 M⁻¹ s⁻¹

B6: VHH A5 (C5^V5) (VHH)
VHH: EVQLVESGGGVVQPGGSLKLSCVASGTDFSINFIRWYRQAPGKQREFVAGFTATGNTNYADSMKGRFTISRDNTKNAVYLQIDSLKPEDTAVYYCAMLDKWGQGTQVTVSS
Kd [1]: 604 nM | Kd [10]: 25 nM | Kd [8]: 180 nM | Kd [9]: 154 nM | koff [9]: 0.0509 s⁻¹ | kon [9]: 332000 M⁻¹ s⁻¹

B7: 13C3-HC-VHH A8 (antibody)
heavy: QVQLQQSGPELVRPGVSVKISCKGSGYTFTDYAMHWVKQSHAKSLEWIGVISTKYGKTNYNQKFKGKATMTVDKSSSTAYMELARLTSEDSAIYYCARGDDGYSWGQGTSVTVSSAKTTPPSVYPLAPGSAAQTNSMVTLGCLVKGYFPEPVTVTWNSGSLSSGVHTFPAVLQSDLYTLSSSVTVPSSTWPSETVTCNVAHPASSTKVDKKIVPRDCGCKPCICTVPEVSSVFIFPPKPKDVLTITLTPKVTCVVVDISKDDPEVQFSWFVDDVEVHTAQTQPREEQFNSTFRSVSELPIMHQDWLNGKEFKCRVNSAAFPAPIEKTISKTKGRPKAPQVYTIPPPKEQMAKDKVSLTCMITDFFPEDITVEWQWNGQPAENYKNTQPIMDTDGSYFVYSKLNVQKSNWEAGNTFTCSVLHEGLHNHHTEKSLSHSPGGGGGMAEVQLVESGGGVVQPGGSLKLSCVASGTDFSINFIRWYRQAPGKQREFVAGFTATGNTNYADSMKGRFTISRDNTKNAVYLQIDSLKPEDTAVYYCYMLAKWGQGTQVTVSSAAA
light: DVVMTQTPLSLPVSLGDQASISCRSGQSLVHSNGNTYLHWYLQKPGQSPKLLIYTVSNRFSGVPDRFSGSGSGSDFTLKISRVEAEDLGVYFCSQNTFVPWTFGGGTKLEIKRADAAPTVSIFPPSSEQLTSGGASVVCFLNNFYPKDINVKWKIDGSERQNGVLNSWTDQDSKDSTYSMSSTLTLTKDEYERHNSYTCEATHKTSTSPIVKSFNRNEC
Kd [1]: 315 nM
